Patent publication US9200040B2, “Specific binding agents of human angiopoietin-2” (Amgen Inc., priority 2001, dated 2015)
Where two headings read alike, the source gives them in different places. Primed or numbered codes have the meaning given here. Where no end group is shown, it is not given here. [ ]: non-standard residue; d: D form. Fc(6) = Fc vehicle: non-antigen-binding antibody fragment (from proteolytic digestion of an antibody) fused to the peptide; Fc(8) = Fc vehicle: non-antigen-binding antibody fragment fused to the peptide (peptibody); Fc(5) = non-antigen-binding fragment of an antibody (vehicle) fused to the peptide; Fc(9) = antibody Fc fragment, the non-antigen-binding fragment

How the values were obtained:
huAng2 = biological target: T1, huAng2 (Homo sapiens, UniProt O15123); experiment: BIAcore binding to huAng2 (Example 9); conditions: Table 8
T1 construct: purchased R&D Systems BNO12103A
T1 sequence (O15123 68-496 limits assumed): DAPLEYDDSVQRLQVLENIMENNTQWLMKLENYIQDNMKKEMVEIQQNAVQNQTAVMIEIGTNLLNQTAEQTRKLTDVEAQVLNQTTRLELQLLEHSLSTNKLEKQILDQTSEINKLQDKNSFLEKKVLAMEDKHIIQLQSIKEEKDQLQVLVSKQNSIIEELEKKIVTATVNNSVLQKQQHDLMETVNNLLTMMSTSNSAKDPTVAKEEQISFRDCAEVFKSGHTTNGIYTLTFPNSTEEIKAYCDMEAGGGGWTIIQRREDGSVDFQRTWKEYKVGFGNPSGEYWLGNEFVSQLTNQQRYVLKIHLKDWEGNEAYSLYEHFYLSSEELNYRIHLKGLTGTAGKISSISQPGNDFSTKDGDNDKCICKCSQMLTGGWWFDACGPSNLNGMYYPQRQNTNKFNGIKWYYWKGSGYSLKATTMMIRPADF
Protocol: Six samples of anti-Ang2 peptibodies were tested for their binding activity to huAng2 (R&D Systems, BNO12103A) on BIAcore. Protein G was immobilized to a CM5 chip according to the standard amine-coupling protocol (BIAcore Inc.), and the peptibodies were then injected over a protein G surface for capturing (RL˜100 Ru). To test binding between hAng2 and the captured peptibody, 0.3 nM to 40 nM of huAng2 was injected over the captured peptibody surfaces, and binding sensorgrams were analyzed using BIAevaluation 3.0 (BIAcore Inc.).

hAng-1 = biological target: T2, hAng-1 (Homo sapiens, UniProt Q15389); experiment: Neutralization ELISA (Example 2); format: binding; conditions: Table 5; about 1 nM Tie-2-Fc
T2 sequence (Q15389 16-498): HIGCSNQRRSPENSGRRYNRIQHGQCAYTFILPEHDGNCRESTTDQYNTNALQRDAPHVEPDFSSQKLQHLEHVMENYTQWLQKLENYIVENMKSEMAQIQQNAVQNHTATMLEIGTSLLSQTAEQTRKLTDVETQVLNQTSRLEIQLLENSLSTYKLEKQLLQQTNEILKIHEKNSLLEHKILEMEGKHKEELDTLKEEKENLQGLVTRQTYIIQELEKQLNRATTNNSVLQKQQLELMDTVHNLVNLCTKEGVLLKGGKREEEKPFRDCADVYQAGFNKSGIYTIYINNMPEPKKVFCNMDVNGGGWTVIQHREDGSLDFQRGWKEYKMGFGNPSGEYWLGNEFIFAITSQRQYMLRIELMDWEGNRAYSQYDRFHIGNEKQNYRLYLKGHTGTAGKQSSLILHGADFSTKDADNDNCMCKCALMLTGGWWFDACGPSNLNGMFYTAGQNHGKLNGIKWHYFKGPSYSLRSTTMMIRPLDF

hAng-2 = biological target: T3, hAng-2 (Homo sapiens, UniProt O15123); experiment: Affinity BIAcore (Example 2); format: binding; conditions: Table 6
T3 construct: conditioned media of human 293T cells transfected with full length human Ang-2 DNA; made in house; host or cells: conditioned media
T3 sequence (O15123 19-496): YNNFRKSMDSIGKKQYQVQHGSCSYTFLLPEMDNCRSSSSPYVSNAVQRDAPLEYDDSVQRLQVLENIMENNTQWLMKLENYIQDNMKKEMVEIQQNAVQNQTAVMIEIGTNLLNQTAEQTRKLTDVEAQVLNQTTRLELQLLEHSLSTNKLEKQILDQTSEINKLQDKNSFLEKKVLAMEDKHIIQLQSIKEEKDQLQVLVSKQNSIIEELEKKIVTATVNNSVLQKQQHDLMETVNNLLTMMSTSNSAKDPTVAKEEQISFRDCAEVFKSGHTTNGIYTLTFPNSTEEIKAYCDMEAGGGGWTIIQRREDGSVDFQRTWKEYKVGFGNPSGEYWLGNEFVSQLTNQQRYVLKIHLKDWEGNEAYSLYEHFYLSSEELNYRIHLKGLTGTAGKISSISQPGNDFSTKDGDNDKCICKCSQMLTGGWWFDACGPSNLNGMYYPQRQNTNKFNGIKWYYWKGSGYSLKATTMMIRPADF
Protocol: (§1) Binding assays were carried out by first capturing about 100 Ru of each candidate anti-Ang-2 peptibody to the immobilized Protein G, after which various concentrations (0-100 nM) of huAng-2 or mAng-2 were injected over the bound antibody surface at a flow rate of 50 μl/min for 3 minutes. Peptibody binding kinetic parameters including ka (association rate constant), kd (dissociation rate constant) and KD (dissociation equilibrium constant) were determined using the BIA evaluation 3.1 computer program (Biacore, Inc.). Lower dissociation equilibrium constants indicated greater affinity of the peptibody for Ang-2.

mAng-2 = biological target: T4, mAng-2 (Mus musculus, UniProt O35608); experiment: Affinity BIAcore (Example 2); format: binding, murine; conditions: Table 6
T4 construct: made in house
T4 sequence (O35608 19-496): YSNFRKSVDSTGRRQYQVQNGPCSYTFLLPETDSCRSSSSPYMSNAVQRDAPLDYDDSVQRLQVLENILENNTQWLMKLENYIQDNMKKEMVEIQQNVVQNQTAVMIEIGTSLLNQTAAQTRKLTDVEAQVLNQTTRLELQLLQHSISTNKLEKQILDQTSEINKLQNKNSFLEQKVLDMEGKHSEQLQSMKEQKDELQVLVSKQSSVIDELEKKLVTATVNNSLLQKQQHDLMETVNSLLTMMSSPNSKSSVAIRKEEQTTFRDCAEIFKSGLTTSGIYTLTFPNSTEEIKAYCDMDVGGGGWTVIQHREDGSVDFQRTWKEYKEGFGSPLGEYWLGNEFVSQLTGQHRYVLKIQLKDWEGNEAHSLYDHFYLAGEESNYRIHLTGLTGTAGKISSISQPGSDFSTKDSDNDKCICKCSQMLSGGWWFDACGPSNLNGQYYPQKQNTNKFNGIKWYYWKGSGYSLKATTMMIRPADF
Protocol: as §1

Colo-205 tumor = conditions: for tumor growth vs. vehicle control: from study day 14: 2×Con4-C 350 μg/mouse s.c. twice a week, p<0.0001
Protocol: Female nude mice were injected subcutaneously with 2×10^6 Colo-205 cells plus Matrigel (2:1) on study day 0. At day 3, the Ang-2 peptibodies L1-7-N, L1-21-N, Con4-C, and 2×Con4-C were administered subcutaneously at the dose of […], twice a week.
Female nude mice were injected subcutaneously with 2×10^6 Colo-205 cells plus Matrigel (2:1) on study day 0.
Female nude mice were injected subcutaneously with 2×10^6 Colo-205 cells plus Matrigel (2:1) on study day 0. At day 3, Ang-2 peptibody 2×Con4-C or control peptibody were administered subcutaneously at the dose of 350 μg/day. Tumors from groups treated with control peptibody (as described in Table 5) were harvested either at Day 14 (size-matched control) or Day 18 (time-matched control). Tumors from 2×Con4(C) treated group were then harvested at Day 18. Tumor volumes were recorded at regular intervals, as shown.
Female nude mice were injected subcutaneously with 2×10^6 Colo-205 cells plus Matrigel (2:1) on study day 0. Treatment with 350 μg/mouse, s.c. twice a week, of the Ang-2 peptibody 2×Con4-C, or equivalent control peptibody started either at study day 3, 10 or 15. […] The results are set forth in FIG. 8 (body weights not shown).
Female nude mice were injected subcutaneously with 2×10^6 Colo-205 cells plus Matrigel (2:1) on study day 0. At study day 14, treatments were started with a) 350 μg/mouse, s.c. twice a week, of the Ang-2 peptibody 2×Con4-C, b) 20 mg/kg qwx3 i.p. of taxotere, or c) a combination of both.
Female nude mice were injected subcutaneously with 2×10^6 Colo-205 cells plus Matrigel (2:1) on study day 0. At study day 14 started treatments with a) 350 μg/mouse, s.c. twice a week, of the Ang-2 peptibody 2×Con4-C, b) 50 mg/kg qdx5 i.p. of 5-FU, or c) a combination of both.

ka (huAng2) [M⁻¹ s⁻¹] | kd (huAng2) [s⁻¹] | hAng-1 IC 50 (hAng-1) | Molecule | also measured
150000 | 0.00011 |  | MGAQ-QKFQPLDELEQTLYEQFMLQQA LEGGGGG-Fc (MGAQQKFQPLDELEQTLYEQFMLQQALEGGGGG[Fc]; also: Fc vehicle domain fused (peptibody)) [L1-10 (N)] | 
560000 | 0.00014 |  | MGAQ-HTFQPLDELEETLYYQWLYDQL LEGGGGG-Fc (MGAQHTFQPLDELEETLYYQWLYDQLLEGGGGG[Fc]; also: Fc vehicle domain fused (peptibody)) [L1-21 (N)] | 
 |  | No In- | MGAQKFNPLDELEETLYEQFTFQQLEGGGGG-Fc [L1 (N)] | hAng-2 ka (hAng-2): 290000 M⁻¹ s⁻¹; hAng-2 kd (hAng-2): 0.00091 s⁻¹; mAng-2 ka (mAng-2): 560000 M⁻¹ s⁻¹; mAng-2 kd (mAng-2): 0.00023 s⁻¹
 |  |  | CC(=O)O[C@@]12CO[C@@H]1C[C@H](O)[C@@]1(C)C(=O)[C@H](O)C3=C(C)[C@@H](OC(=O)[C@H](O)[C@@H](NC(=O)OC(C)(C)C)c4ccccc4)C[C@@](O)([C@@H](OC(=O)c4ccccc4)[C@H]21)C3(C)C [taxotere, reference compound] | tumor growth vs. vehicle control (Colo-205 tumor; Example 19a, taxotere 20 mg/kg qwx3 i.p., or both): Significant differences in tumor growth
 |  | No In- | MGAQ-FDYCEGVEDPFTFGCDNHLE-GGGGG-Fc (MGAQFDYCEGVEDPFTFGCDNHLEGGGGG[Fc(6)]; cysteine pairing not given here) [12-9 (N)] | hAng-2 ka (hAng-2): 120000 M⁻¹ s⁻¹; hAng-2 kd (hAng-2): 0.001 s⁻¹; mAng-2 ka (mAng-2): 720000 M⁻¹ s⁻¹; mAng-2 kd (mAng-2): 0.00023 s⁻¹
290000 | 5.9e-05 |  | M-Fc-GGGGGAQ-PIRQEECDWDPWTCEHMWEV-LE (M[Fc(8)]GGGGGAQPIRQEECDWDPWTCEHMWEVLE; cysteine pairing not given here; also: Fc vehicle fused at position 2) [Con4-44 (C)] | 
 |  |  | O=c1[nH]cc(F)c(=O)[nH]1 [Peptibody 5-FU, 5-FU, reference compound] | tumor growth vs. vehicle control (Colo-205 tumor; Example 19b, 5-FU 50 mg/kg qdx5 i.p., or both): Significant differences in tumor growth; transient reduction in body weight (Colo-205 tumor; Example 19b, at study day 20, followed by complete recovery): 18%
370000 | 8.7e-05 |  | MGAQ-TNFMPMDDLEQRLYEQFILQQG-LEGGGGG-Fc (MGAQTNFMPMDDLEQRLYEQFILQQGLEGGGGG-Fc) [L1-7 (N)] | 
 |  | No In- | MGAQ-KRPCEEMWGGCNYDLEGGGGG-Fc (MGAQKRPCEEMWGGCNYDLEGGGGG[Fc(5)]; not fully specified (bridges); printed as MGAQ-KRPCEEMWGGCNYDLEGGGGG-Fc; cysteine pairing not given here) [8-8 (N)] | 
 |  | No In- | MGAQ-KRPCEEIFGGCTYQLEGGGGG-Fc (MGAQKRPCEEIFGGCTYQLEGGGGG[Fc(5)]; not fully specified (bridges); printed as MGAQ-KRPCEEIFGGCTYQLEGGGGG-Fc; cysteine pairing not given here) [Con1 (N)] | 
 |  | No In- | MGAQ-HQICKWDPWTCKHWLEGGGGG-Fc (MGAQHQICKWDPWTCKHWLEGGGGG[Fc(5)]; not fully specified (bridges); printed as MGAQ-HQICKWDPWTCKHWLEGGGGG-Fc; cysteine pairing not given here) [8-14 (N)] | 
 |  | No In- | MGAQ-QYGCDGFLYGCMINLE-GGGGG-Fc (MGAQQYGCDGFLYGCMINLEGGGGG-{Fc(9)}; not fully specified (bridges); printed as MGAQ-QYGCDGFLYGCMINLE-GGGGG-Fc; cysteine pairing not given here) [C17 (N)] | 
